Assay results reported in patent publication US20220194999A1 (Janssen / Centocor, published 2022).

Each binder was assayed against T1, HLA-A*02:01 class I complex (conditional p*HLA*02:01, biotinylated heavy chain with beta2-microglobulin) (human, biotinylated heavy chain) (assay: UV peptide exchange, HLA class I ELISA, % of Pos peptide;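 as to Average %: Streptavidin-captured HLA complexes after exchange detected via HRP anti-human B2M antibody, absorbance read, colour scales with intact complex, normalized to exchange control peptide as 100%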;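 as to Exch I (%): Streptavidin-captured HLA complexes after exchange detected via HRP anti-human B2M antibody, absorbance read, colour scales with intact complex, normalized to exchange control peptide as 100%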;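 as to Exch II (%): Streptavidin-captured HLA complexes after exchange detected via HRP anti-human B2M antibody, absorbance read, colour scales with intact complex, normalized to exchange control peptide as 100%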).
T1 construct: UV-labile peptide p* is cleaved and exchanged for the test peptide; also called HLA 2.1
From the text: (§1) The HLA class I ELISA is an enzyme immunoassay based on the detection of beta2-microglobulin (B2M) of (peptide-stabilized) HLA class I complexes. To this end streptavidin is bound onto polystyrene microtiter wells. After washing and blocking, HLA complex present in exchange reaction mixtures or ELISA controls is captured by the streptavidin on the microtiter plate via its biotinylated heavy chain. Non-bound material is removed by washing. Subsequently, horseradish peroxidase (HRP)-conjugated antibody to human B2M is added. […] In the latter case B2M is removed during the washing step. After removal of non-bound HRP conjugate by washing, a substrate solution is added to the wells. A colored product is formed in proportion to the amount of intact HLA complex present in the samples. After the reaction has been terminated by the addition of a stop solution, absorbance is measured in a microtiter plate reader. The absorbance is normalized to the absorbance of an exchange control peptide (represents 100%). Also, suboptimal HLA binding of peptides with a moderate to low affinity for HLA class I molecules can be detected by this ELISA technique
(§2) Coating wells of two NUNC MaxiSorp™ 96-well ELISA plates: only the contents of one coating buffer capsule were dissolved in 100 mL of distilled water (0.05 M carbonate-bicarbonate buffer, pH 9.6 at 25° C.). 46 μL of Streptavidin stock solution were added to 23 mL coating buffer. 100 μL of the Streptavidin stock solution were added to all wells. Each microtiter plate was covered with an adhesive seal and incubated overnight at room temperature (18-25° C.).

| Binder | average relative binding (%) |
| --- | --- |
| NMDEYVHNT (also called M110) [SF3B1.R625H mutant peptide NMDEYVHNT] | < 15 |
| LVVVGAAGV (also called M050) [KRAS.G12A mutant peptide LVVVGAAGV] | < 15 |
| YLDSGIHFV (also called M032) [CTNNB1_S37F5 mimic peptide YLDSGIHFV] | > 100 |
| YMDSGIHFI (also called M031) [CTNNB1_S37F14 mimic peptide YMDSGIHFI] | > 100 |
| YMDSGIHFL (also called M035) [CTNNB1.S37F10 mimic peptide YMDSGIHFL] | > 100 |
| SVTCTYFPA (also called M210) [TP53.S127F mutant peptide SVTCTYFPA] | < 15 |
| RLIHRDLAA (also called M240) [ERBB2.V842I mutant peptide RLIHRDLAA] | < 15 |
| YQGSYGFLL (also called M200) [TP53.R110L mutant peptide YQGSYGFLL] | < 15 |
| YQGSYGFLI (also called M201) [TP53_R110L3 mimic peptide YQGSYGFLI] | < 15 |
| MIFSKRHWA (also called M010) [CIC.R215W mutant peptide MIFSKRHWA] | < 15 |
| CYMYYYSYLL (also called M104) [PTEN.R173C3 mimic peptide CYMYYYSYLL] | < 15 |
| CYMYYYSYLI (also called M106) [PTEN.R173C11 mimic peptide CYMYYYSYLI] | < 15 |
| CYLYYYSYLV (also called M102) [PTEN R173C6 mimic peptide CYLYYYSYLV] | < 15 |
| GLAPPQLLI (also called M140) [TP53.H193L mutant peptide GLAPPQLLI] | < 15 |
| GLAPPQYLI (also called M150) [TP53.H193Y mutant peptide GLAPPQYLI] | < 15 |
| GMAPPQLLV (also called M142) [TP53_H193L6 mimic peptide GMAPPQLLV] | < 15 |
| YLDCGIHSL (also called M034) [CTNNB1.S33C9 mimic peptide YLDCGIHSL] | > 100 |
| YMDCGIHSL (also called M021) [CTNNB1_S33C10 mimic peptide YMDCGIHSL] | > 100 |
| YMDCGIHSV (also called M023) [CTNNB1_S33C6 mimic peptide YMDCGIHSV] | > 100 |
| YLDCGIHSV (also called M022) [CTNNB1_S33C5 mimic peptide YLDCGIHSV] | > 100 |

Each binder was assayed against T1, HLA-A*02:01 class I complex … (assay: UV peptide exchange, HLA class I ELISA; low end of the group, member by Table 4).
From the text: as §1, §2

| Binder | average relative binding (%) |
| --- | --- |
| VLSDAISAV (also called M121; SOX17_S40312) [SOX17_S403I2 mimic peptide VLSDAISAV] | 90 to 100 |
| LLVVGAAGV (also called M051) [KRAS_G12A2 mimic peptide LLVVGAAGV] | 33 to 38 |
| KLYPVQLWV (also called M131) [TP53_C141Y2 mimic peptide KLYPVQLWV] | 80 to 88 |
| YQGSYGFLV (also called M202) [TP53_R110L4 mimic peptide YQGSYGFLV] | 50 to 58 |
| CYLYYYSYLL (also called M101) [PTEN R173C2 mimic peptide CYLYYYSYLL] | 18 to 28 |
| VLPCEPPEV (also called M231) [TP53_Y220C2 mimic peptide VLPCEPPEV] | 70 to 79 |
| VMPCEPPEV (also called M232) [TP53_Y220C3 mimic peptide VMPCEPPEV] | 61 to 69 |
| YLDCGIHSV (also called M022) [CTNNB1_S33C5 mimic peptide YLDCGIHSV] | 102 to 113 |

Target: T1, HLA-A*02:01 class I complex …
Assay: UV peptide exchange, HLA class I ELISA, % of Pos peptide
Remark: another data set of the same source
From the text: as §1, §2

| Binder | Average % [%] | Exch I (%) | Exch II (%) |
| --- | --- | --- | --- |
| NMDEYVHNT (also called M110) [SF3B1.R625H mutant peptide NMDEYVHNT] | 8.3 | 9.2 | 7.3 |
| NMDEYVHNL (also called M113) [SF3B1_R625H9 mimic peptide NMDEYVHNL] | 58.1 | 62 | 54.3 |
| VLSDAISAV (also called M121; SOX17_S40312) [SOX17_S403I2 mimic peptide VLSDAISAV] | 90.1 | 89.3 | 90.9 |
| LVVVGAAGV (also called M050) [KRAS.G12A mutant peptide LVVVGAAGV] | 6.4 | 6.6 | 6.2 |
| LLVVGAAGV (also called M051) [KRAS_G12A2 mimic peptide LLVVGAAGV] | 33.3 | 34.1 | 32.5 |
| LMVVGACGV (also called M062) [KRAS_G12C3 mimic peptide LMVVGACGV] | 48.7 | 47.1 | 50.4 |
| GLKDLLNPI (also called M080) [PIK3CA.E453K mutant peptide GLKDLLNPI] | 79.4 | 73.8 | 84.9 |
| YMDSGIHFV (also called M033) [CTNNB1_S37F6 mimic peptide YMDSGIHFV] | 99.8 | 104 | 95.5 |
| YLDSGIHFV (also called M032) [CTNNB1_S37F5 mimic peptide YLDSGIHFV] | 104 | 99.3 | 109 |
| YMDSGIHFI (also called M031) [CTNNB1_S37F14 mimic peptide YMDSGIHFI] | 107 | 97.6 | 116 |
| YMDSGIHFL (also called M035) [CTNNB1.S37F10 mimic peptide YMDSGIHFL] | 105 | 102 | 108 |
| SVTCTYFPA (also called M210) [TP53.S127F mutant peptide SVTCTYFPA] | 8.6 | 7.7 | 9.4 |
| KLYPVQLWV (also called M131) [TP53_C141Y2 mimic peptide KLYPVQLWV] | 81.9 | 84.1 | 79.8 |
| RLIHRDLAA (also called M240) [ERBB2.V842I mutant peptide RLIHRDLAA] | 7.2 | 6.8 | 7.7 |
| YQGSYGFLL (also called M200) [TP53.R110L mutant peptide YQGSYGFLL] | 11.9 | 14.3 | 9.6 |
| YQGSYGFLI (also called M201) [TP53_R110L3 mimic peptide YQGSYGFLI] | 8.9 | 7.1 | 10.8 |
| YQGSYGFLV (also called M202) [TP53_R110L4 mimic peptide YQGSYGFLV] | 49.6 | 53.6 | 45.6 |
| MIFSKRHWA (also called M010) [CIC.R215W mutant peptide MIFSKRHWA] | 6.2 | 6.2 | 6.1 |

| Binder | Average % [%] | Exch I (%) | Exch II (%) |
| --- | --- | --- | --- |
| MMFSKRHWV (also called M013) [CIC_R215W7 mimic peptide MMFSKRHWV] | 74.4 | 76.2 | 72.6 |
| MLFSKRHWV (also called M012) [CIC_R215W6 mimic peptide MLFSKRHWV] | 74.3 | 74.8 | 73.8 |
| MMFSKRHWI (also called M011) [CIC_R215W15 mimic peptide MMFSKRHWI] | 42.8 | 40.4 | 45.3 |
| CYLYYYSYLL (also called M101) [PTEN R173C2 mimic peptide CYLYYYSYLL] | 18.3 | 16.1 | 20.6 |
| CYMYYYSYLL (also called M104) [PTEN.R173C3 mimic peptide CYMYYYSYLL] | 8.5 | 8.3 | 8.7 |
| CYVYYYSYLL (also called M100) [PTEN.R173C mutant peptide CYVYYYSYLL] | 38.4 | 38.2 | 38.5 |
| CYMYYYSYLI (also called M106) [PTEN.R173C11 mimic peptide CYMYYYSYLI] | 4.9 | 4.9 | 4.8 |
| CYLYYYSYLV (also called M102) [PTEN R173C6 mimic peptide CYLYYYSYLV] | 10.7 | 10.4 | 10.9 |
| VLPCEPPEV (also called M231) [TP53_Y220C2 mimic peptide VLPCEPPEV] | 70 | 66.3 | 73.7 |
| VMPCEPPEV (also called M232) [TP53_Y220C3 mimic peptide VMPCEPPEV] | 60.9 | 62.9 | 58.9 |
| GLAPPQLLI (also called M140) [TP53.H193L mutant peptide GLAPPQLLI] | 8.2 | 9.2 | 7.2 |
| GLAPPQYLI (also called M150) [TP53.H193Y mutant peptide GLAPPQYLI] | 13.3 | 13.5 | 13.1 |
| GMAPPQLLV (also called M142) [TP53_H193L6 mimic peptide GMAPPQLLV] | 13.9 | 13.9 | 13.9 |
| YLDCGIHSL (also called M034) [CTNNB1.S33C9 mimic peptide YLDCGIHSL] | 107 | 103 | 111 |
| YMDCGIHSL (also called M021) [CTNNB1_S33C10 mimic peptide YMDCGIHSL] | 106 | 108 | 103 |
| YMDCGIHSV (also called M023) [CTNNB1_S33C6 mimic peptide YMDCGIHSV] | 108 | 101 | 115 |
| YLDCGIHSV (also called M022) [CTNNB1_S33C5 mimic peptide YLDCGIHSV] | 102 | 100 | 104 |

The binders below were run against T1, HLA-A*02:01 class I complex … (assay: UV peptide exchange, HLA class I ELISA; high end of the group, member by Table 4).
From the text: as §1, §2

| Binder | average relative binding (%) |
| --- | --- |
| NMDEYVHNL (also called M113) [SF3B1_R625H9 mimic peptide NMDEYVHNL] | 50 to 58 |
| LMVVGACGV (also called M062) [KRAS_G12C3 mimic peptide LMVVGACGV] | 41 to 49 |
| GLKDLLNPI (also called M080) [PIK3CA.E453K mutant peptide GLKDLLNPI] | 70 to 79 |
| YMDSGIHFV (also called M033) [CTNNB1_S37F6 mimic peptide YMDSGIHFV] | 90 to 100 |
| CYVYYYSYLL (also called M100) [PTEN.R173C mutant peptide CYVYYYSYLL] | 33 to 38 |
